Results reported in patent publication US20080003614.

Key:
[1] = tested on: 35S-labeled FLAG-MAVS (in vitro translated)
[2] = tested on: 35S-labeled FLAG-MAVS-C508R (in vitro translated)

Row | Substance | cleavage of 35S-labeled MAVS in vitro (SDS-PAGE, PhosphorImaging) [1] | cleavage of 35S-labeled MAVS in vitro (SDS-PAGE, PhosphorImaging) [2]
1 | Flag-NS3/4A (S139A), protease-dead mutant | the wild type MAVS was cleaved by the active NS3/4A protease, but not the inactive NS3/4A mutant | –
2 | Flag-NS3/4A (wild type hepatitis C virus NS3/4A serine protease) | the wild type MAVS was cleaved by the active NS3/4A protease | a point mutation at Cys-508 completely blocked the cleavage of MAVS by NS3/4A in vitro
